Reference: PMC9146136 (2022)

Target: anti-mTNFα 3B11 VNAR (soluble, purified)
Test: BLI

B1: extracellular domain of mTNFα (mTNFα ECD, 77-235aa) (domain or fragment)
chain: TLTLRSSSQNSSDKPVAHVVANHQVEEQLEWLSQRANALLANGMDLKDNQLVVPADGLYLVYSQVLFKGQGCPDYVLLTHTVSRFAISYQEKVNLLSAVKSPCPKDTPEGAELKPWYEPIYLGGVFQLEKGDQLSAEVNLPKYLDFAESGQVYFGVIAL
modifications: biotin (biotin-NHS labeling reaction) in the BLI assay only
In the case of B1, the koff is reported as 2.69e-05 s⁻¹.
